Patent US7250304B2, “Functional assay of high-density lipoprotein” (The Regents of the University of California, priority 2000, dated 2007)

Key:
[1] = test system: Ox-PAPC, POVPC, PGPC, PEIPC; assay type: cell-based, human
[2] = test system: human artery wall cell cocultures; assay: LDL oxidation by human artery wall cell cocultures (lipid hydroperoxides); assay type: cell-based
Procedure: (§1) The wells of the microtiter plates were treated with 0.1% gelatin at 37° C. overnight. HASMC were added at a confluent density of 1×10^5 cells/cm^2. Cells were cultured for 2 d at which time they had covered the entire surface of the well and had produced a substantial amount of extracellular matrix. HAEC were subsequently added at 2×10^5 cells/cm^2 and were allowed to grow forming a complete monolayer of confluent HAEC in 2 d. In all experiments, HAEC and autologous HASMC (from the same donor) were used at passage levels of four to six.
In general, the cocultures were treated with native LDL (250 μg/ml) in the absence or presence of HDL for 8 h. The supernatants were collected and used for determination of lipid hydroperoxide levels. The cocultures were subsequently washed and fresh culture medium 199 (M199) without any additions was added and incubated for an additional 8 hrs. This allowed the collection of monocyte chemotactic activity released by the cells as a result of stimulation by the oxidized LDL. At the end of incubation, the supernatants were collected from cocultures, diluted 40-fold, and assayed for monocyte chemotactic activity. […] The number of migrated monocytes was determined microscopically and expressed as the mean±SD of 12 standardized high power fields counted in quadruple wells.
Statistical significance was determined by model 1 ANOVA. […]

[3] = test system: human artery wall cell cocultures; assay: Monocyte chemotaxis assay on coculture conditioned medium; assay type: cell-based; conditions: cocultures incubated 8 hrs with agent, agent removed before LDL
Procedure: as §1
Monocytes were isolated using a modification of the Recalde method as previously described (Fogelman et al. (1988) J. Lipid Res. 29: 1243-1247) from the blood of normal volunteers after obtaining written consent under a protocol approved by the human research subject protection committee of the University of California, Los Angeles.
In general, the cocultures were treated with native LDL (250 μg/ml) in the absence or presence of HDL for 8 h. The supernatants were collected and used for determination of lipid hydroperoxide levels. The cocultures were subsequently washed and fresh culture medium 199 (M199) without any additions was added and incubated for an additional 8 hrs. […] The number of migrated monocytes was determined microscopically and expressed as the mean±SD of 12 standardized high power fields counted in quadruple wells.

B1: PON: purified human paraoxonase, HDL associated enzyme (protein, UniProt P27169 2-355, looked up)
Serum …: AKLIALTLLGMGLALFRNHQSSYQTRLNALREVQPVELPNCNLVKGIETGSEDLEILPNGLAFISSGLKYPGIKSFNPNSPGKILLMDLNEEDPTVLELGITGSKFDVSSFNPHGISTFTDEDNAMYLLVVNHPDAKSTVELFKFQEEEKSLLHLKTIRHKLLPNLNDIVAVGPEHFYGTNDHYFLDPYLQSWEMYLGLAWSYVVYYSPSEVRVVAEGFDFANGINISPDGKYVYIAELLAHKIHVYEKHANWTLTPLKSLDFNTLVDNISVDPETGDLWVGCHPNGMKIFFYDSENPPASEVLRIQNILTEEPKVTQVYAENGTVLQGSTVASVYKGKLLIGTVFHKALYCEL
- biologic activity (induction of monocyte chemotactic activity) of Ox-PAPC, POVPC, PGPC, PEIPC after incubation with enzyme [1]: destruction of the biologic activity of each
- ability of pretreated artery wall cocultures to oxidize LDL ([2]; cocultures incubated 8 hrs with agent, agent removed before LDL 250 μg/ml): rendered the artery wall cells incapable of oxidizing IDL
- oxidation by artery wall cells of LDL pre-incubated with the agent ([2]; human LDL incubated with agent, re-isolated, then cocultures 8 hrs): rendered the LDL resistant to oxidation
- LDL-induced monocyte chemotaxis in pretreated cocultures [3]: prevented LDL-induced monocyte chemotaxis
